Measurements published in US20180057888A1, “KUB5/HERA AS A DETERMINANT OF SENSITIVITY TO DNA DAMAGE” (priority 2015, published 2018).

Biological target: RNA Polymerase II (RNAPII), phospho-Ser2 C-terminal domain (pS2-CTD) (UniProt P24928)
Experiment: cell-based or functional assay

Chain of myc-tagged wild-type Kub5-Hera (K-H) (Q9NQG5 whole entry): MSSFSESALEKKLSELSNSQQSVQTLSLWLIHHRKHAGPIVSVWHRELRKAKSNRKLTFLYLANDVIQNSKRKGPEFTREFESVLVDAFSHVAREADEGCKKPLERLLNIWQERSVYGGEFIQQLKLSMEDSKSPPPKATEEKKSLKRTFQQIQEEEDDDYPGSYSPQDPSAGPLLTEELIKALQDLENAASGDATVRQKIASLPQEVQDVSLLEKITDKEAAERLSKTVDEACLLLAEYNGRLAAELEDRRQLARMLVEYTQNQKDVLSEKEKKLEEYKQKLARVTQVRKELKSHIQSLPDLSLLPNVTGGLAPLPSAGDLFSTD

“myc-tagged wild-type Kub5-Hera (K-H) (from UniProt Q9NQG5 1-326)” was tested, and the CDK1 promoter activity (luciferase reporter, 231 cells) was 3 fold.
